Results: US20220332804A1 (CSL INNOVATION, published 2022)

Legend:
Test in all cases: SPR; KD relative to WT C2;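 further: biacore SPR at 37 °C, anti-C2 mAbs captured on an anti-human IgG chip, alanine or serine C2 surface mutants tested, KD from 1:1 fit compared with wild-type C2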
human C2 V448A = biological target: T1, human C2 V448A (human, UniProt P06681 21-752)
T1 sequence: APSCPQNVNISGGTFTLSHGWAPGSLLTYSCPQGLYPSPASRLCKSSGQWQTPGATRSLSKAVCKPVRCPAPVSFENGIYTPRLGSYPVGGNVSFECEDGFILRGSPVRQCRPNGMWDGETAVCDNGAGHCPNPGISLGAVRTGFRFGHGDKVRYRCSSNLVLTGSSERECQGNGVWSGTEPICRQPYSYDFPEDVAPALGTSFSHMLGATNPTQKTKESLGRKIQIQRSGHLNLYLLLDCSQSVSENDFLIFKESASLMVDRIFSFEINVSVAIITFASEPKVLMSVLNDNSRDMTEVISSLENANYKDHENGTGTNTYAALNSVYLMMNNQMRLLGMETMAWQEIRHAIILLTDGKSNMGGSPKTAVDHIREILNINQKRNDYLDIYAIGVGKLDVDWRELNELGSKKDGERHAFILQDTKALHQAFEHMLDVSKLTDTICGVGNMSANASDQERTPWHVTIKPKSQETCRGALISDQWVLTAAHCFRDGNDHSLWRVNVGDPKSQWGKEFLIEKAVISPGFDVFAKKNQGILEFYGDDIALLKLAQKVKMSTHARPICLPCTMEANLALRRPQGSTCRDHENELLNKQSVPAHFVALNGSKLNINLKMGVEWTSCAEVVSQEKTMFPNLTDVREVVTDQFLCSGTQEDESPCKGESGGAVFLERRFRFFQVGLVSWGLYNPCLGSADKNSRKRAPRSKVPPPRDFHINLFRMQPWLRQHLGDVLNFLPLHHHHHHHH
Protocol: (§1) Surface plasmon resonance (SPR, Biacore) was used for all binding affinity analyses. In brief, goat anti-human IgG was directly immobilised onto the carboxymethyl dextran surface of CM5 sensorchips to approximately 12,000 RU using standard NHS/EDC chemistry at pH 5. The immobilised antibody surface was pre-conditioned with ten injections of polyclonal human IgG (Privigen 60 s) prepared at 1 μg/mL. Ligands (anti-C2 mAbs) were captured at the beginning of each cycle as described below. An adjacent spot or flow cell in which only Polyclonal IgG was capture was used as a reference surface. The goat anti-human IgG Fc antibody surface was regenerate in 100 mM H3PO4, injected for 45 seconds at the end of each cycle. Experiments were performed at 37° C. and the flow rate of each experiment was kept constant at 30 μL/min.
(§2) Sensogram data was double-referenced against a reference anti-IgG surface (i.e. minus anti-C2 mAb) and blank buffer injections obtained within each experiment. The binding data was fit to 1:1 (kinetic or steady-state) model using local Rmax and null refraction index (RI=0) when appropriate. Buffers and solutions were filtered (0.22 μm) prior to use.
(§3) The C2 mutants were designed to test the importance of surface exposed residues for antibody binding. Residues located at either the N-terminal VWA domain or C-terminal protease domain of C were replaced by either alanine or serine and tested for binding against anti-C2 antibodies.

human C2 L279A = biological target: T2, human C2 L279A (human, UniProt P06681 21-752)
T2 sequence: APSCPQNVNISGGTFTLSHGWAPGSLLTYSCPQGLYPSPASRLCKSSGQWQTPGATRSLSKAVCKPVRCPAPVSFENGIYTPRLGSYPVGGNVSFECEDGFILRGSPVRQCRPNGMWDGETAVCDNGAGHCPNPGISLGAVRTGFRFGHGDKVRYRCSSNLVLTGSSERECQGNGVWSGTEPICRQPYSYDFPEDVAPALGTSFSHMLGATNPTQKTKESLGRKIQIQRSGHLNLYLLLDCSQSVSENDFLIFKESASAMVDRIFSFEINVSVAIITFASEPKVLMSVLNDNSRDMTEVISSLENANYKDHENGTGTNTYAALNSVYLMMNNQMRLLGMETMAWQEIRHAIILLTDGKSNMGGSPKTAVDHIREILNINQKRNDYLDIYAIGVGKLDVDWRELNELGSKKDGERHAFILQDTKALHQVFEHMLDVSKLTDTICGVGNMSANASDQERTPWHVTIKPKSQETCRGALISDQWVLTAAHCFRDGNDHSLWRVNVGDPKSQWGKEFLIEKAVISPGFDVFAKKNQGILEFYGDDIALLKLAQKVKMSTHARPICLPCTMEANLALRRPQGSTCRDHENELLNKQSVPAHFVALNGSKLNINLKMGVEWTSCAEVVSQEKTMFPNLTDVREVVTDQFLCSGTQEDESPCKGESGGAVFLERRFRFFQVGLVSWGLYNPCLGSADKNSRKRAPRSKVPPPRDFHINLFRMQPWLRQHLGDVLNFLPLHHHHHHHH
Protocol: as §1, §2, §3

human C2 G677A = biological target: T3, human C2 G677A (human, UniProt P06681 21-752)
T3 sequence: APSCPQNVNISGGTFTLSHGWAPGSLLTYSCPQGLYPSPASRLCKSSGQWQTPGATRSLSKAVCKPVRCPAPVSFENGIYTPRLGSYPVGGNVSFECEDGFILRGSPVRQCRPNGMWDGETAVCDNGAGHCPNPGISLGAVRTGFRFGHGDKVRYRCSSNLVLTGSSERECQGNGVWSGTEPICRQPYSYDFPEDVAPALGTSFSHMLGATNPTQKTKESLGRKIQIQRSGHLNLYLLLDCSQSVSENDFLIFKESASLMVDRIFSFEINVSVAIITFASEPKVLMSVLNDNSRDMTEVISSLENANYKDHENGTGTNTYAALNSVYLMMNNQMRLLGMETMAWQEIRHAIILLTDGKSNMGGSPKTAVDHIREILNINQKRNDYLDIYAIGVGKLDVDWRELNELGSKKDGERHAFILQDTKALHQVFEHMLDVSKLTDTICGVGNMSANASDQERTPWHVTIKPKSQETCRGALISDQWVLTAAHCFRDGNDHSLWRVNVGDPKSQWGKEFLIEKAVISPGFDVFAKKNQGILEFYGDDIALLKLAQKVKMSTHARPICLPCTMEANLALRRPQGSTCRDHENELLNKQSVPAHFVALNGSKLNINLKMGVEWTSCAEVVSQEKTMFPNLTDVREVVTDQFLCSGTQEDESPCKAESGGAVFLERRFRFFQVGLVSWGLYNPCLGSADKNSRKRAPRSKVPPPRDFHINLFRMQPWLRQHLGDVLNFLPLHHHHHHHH
Protocol: as §1, §2, §3

human C2 I272A = biological target: T4, human C2 I272A (human, UniProt P06681 21-752)
T4 sequence: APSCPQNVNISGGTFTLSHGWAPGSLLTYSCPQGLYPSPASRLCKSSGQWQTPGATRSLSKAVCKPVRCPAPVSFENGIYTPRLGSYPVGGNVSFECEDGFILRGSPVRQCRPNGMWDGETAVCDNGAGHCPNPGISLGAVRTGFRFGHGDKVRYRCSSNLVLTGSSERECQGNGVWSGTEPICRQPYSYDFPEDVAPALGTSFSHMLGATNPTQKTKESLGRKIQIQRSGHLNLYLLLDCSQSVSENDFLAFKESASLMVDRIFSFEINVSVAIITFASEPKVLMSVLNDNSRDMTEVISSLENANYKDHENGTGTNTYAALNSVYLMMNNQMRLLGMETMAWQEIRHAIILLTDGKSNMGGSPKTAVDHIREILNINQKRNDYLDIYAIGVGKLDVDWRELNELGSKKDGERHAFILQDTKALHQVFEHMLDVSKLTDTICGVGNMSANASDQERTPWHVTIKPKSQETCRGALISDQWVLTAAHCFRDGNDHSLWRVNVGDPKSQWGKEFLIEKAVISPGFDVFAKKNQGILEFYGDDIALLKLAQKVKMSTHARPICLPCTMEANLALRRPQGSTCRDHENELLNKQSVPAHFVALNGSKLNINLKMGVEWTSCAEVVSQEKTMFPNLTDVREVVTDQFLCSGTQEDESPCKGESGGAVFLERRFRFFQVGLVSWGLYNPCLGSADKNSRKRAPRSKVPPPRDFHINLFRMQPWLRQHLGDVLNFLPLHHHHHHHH
Protocol: as §1, §2, §3

B1: RF16-214 (antibody, V domains shown)
VH: EVQLLESGGGLVQPGGSLRLSCAASGFTFSWYQMMWVRQAPGKGLEWVSRIYPSGGGTAYADSVKGRFTISRDNSKNTLYLQMNSLRAEDTAVYYCARDAGYGDNWGQGTLVTVSS
VL: QSALTQPPSVSVSPGQTASITCSGDKLGEKYASWYQQKAGQSPVMVIYQDRKRPSGIPERFSGSNSGNTATLTISGTQAMDEADYYCQAWDTRAVVFGGGTKLTVLG
Fold diff (human C2 V448A): 0 fold | Fold diff (human C2 L279A): 8 fold | Fold diff (human C2 G677A): 1 fold | Fold diff (human C2 I272A): 15 fold
